In patent US20230065495A1, “MULTIPARTITE AND CIRCULARLY PERMUTED BETA-BARREL POLYPEPTIDES AND METHODS FOR THEIR USE” (University of Washington, priority 2020, published 2023):

Columns and labels:
[1] = Chromophore titration with DFHBI; format: binding
Method: (§1) Fluorescence endpoints were measured on a Synergy Neo2™ hybrid multi-mode reader (BioTek) in flat bottom, black polystyrene, non-binding surface 96-well microplates (Corning 3650). In measuring chromophore binding affinities (FIG. 6d,e), mFAP2, mFAP2a, and mFAP2b, and mFAP10 were produced by large-scale protein purification and SEC purification^9. Proteins were aliquoted in eight technical replicates in 200 μL final volumes to 20.0 nM final concentration in ten serial dilutions (√{square root over (10)} dilution factor) of DFHBI starting from 31.6 μM DFHBI or 31.6 μM DFHBI-1T final concentrations, including an eleventh condition without chromophore. Fluorescence was excited at λex=468 nm and fluorescence emission measured at λem=530 nm. Background fluorescence endpoints of wells with identical chromophore concentrations but purified protein replaced with an identical volume of high salt Tev cleavage buffer were measured, and fluorescence endpoints subtracted from those measured with protein. Background-subtracted data were averaged and the means normalized from 0 to 1 and fit to a single binding site isotherm function using non-linear least squares fitting to obtain a fitted Kd value (Table 4), and the fit scaled to the maximum mean value (FIG. 6d,e).

[2] = Chromophore titration with DFHBI-1T; format: binding
Method: as §1

[3] = Absolute quantum yield (integrating sphere) and brightness; format: physicochemical
Method: Protein preparation. mFAP2a, mFAP2b and mFAP10 were produced by large-scale protein purification^9 and dialyzed overnight into DPBS that was adjusted to pH 7.40 using NaOH.
Chromophore preparation. DFHBI (Lucerna) and DFHBI-1T (Lucerna) were dissolved to 20.0 mM in 100% DMSO, and diluted in DPBS (pH 7.40) to measure absorbances on a Jasco V-750 spectrophotometer at peak absorbance wavelengths (417 nm for DFHBI and 422 nm for DFHBI-1T). Following background subtraction of identical buffer without chromophore, Beer's Law was used to calculate the molar chromophore concentrations of the stock solutions using previously reported extinction coefficients^5.
Preparation of protein-chromophore complexes. […]
Absolute quantum yield. […] Absolute quantum yields were measured for solutions of protein-chromophore complexes in DPBS (pH 7.40) in which ≥95% of the total chromophore was occupying the protein binding pocket (Table 4). Protein-chromophore complex samples and control samples were excited at λex=440 nm and absolute quantum yields were calculated according to the equation: […]
where fem is the emitted photon flux and fabs is the absorbed photon flux. […] Absolute quantum yield data was analyzed with U6039-05 PLQY measurement software (Table 4; FIG. 8).

B1: mFAP10: canonical, single-chain mFAP, SEQ ID NO: 534 (protein)
chain: SRAAQLLPGTWQATFTNEDGQTSQGQIHFQPRSPYTMDIVAQGTISDGRPIVGYGKATVKTPDTLDIDITYPSLGNIKAQGQITMDSPTQFKFDATTKGENDFHGRLTGTLQRQE
[1]
  higher affinity for DFHBI than DFHBI-1T: ~2.6 fold
[2]
  Kd: 0.045 µM
[3]
  brighter fluorescence with DFHBI-1T than DFHBI: ~12 fold
